Results on 2 molecules are retold here after patent US20120058906A1 (published 2012).

The target in assay [1] is T1, rHuman IGF-1 sR (IGF-1 sR), CF (R&D Systems Cat#391-GR) (human, UniProt P08069 31-932).
T1 construct: Bought soluble receptor; also called insulin-like growth factor-1 soluble receptor; IGF-R1
As to the kind of experiment: ECL (MSD multi-spot), antigen spotted on plate; Fab 1000 nM; blank 1742.

Assay [2] concerns the target T2, rHuman CD44/Fc Chimera, CF (R&D Systems Cat#3660-CD) (human, UniProt P16070 21-220).
T2 construct: Bought protein; Fc part of the bought chimera not given
The description is as above.

Assay [3] has as its target T3, Recombinant Human DLL4 (R&D Systems Cat#1506-D4/CF) (human, UniProt Q9NR61 27-524).
T3 construct: Bought protein; also called rHuman DLL4; delta-like protein 4
The assay is described as above.

The target of assay [4] is T4, rHuman P-Cadherin/Fc Chimera, CF (R&D Systems Cat#861-PC) (human, UniProt P22223 108-654).
T4 construct: Bought protein; also called CDH3; Fc part of the bought chimera not given
The description is as above.

For assay [5], the target named is T1, rHuman IGF-1 sR (IGF-1 sR), CF (R&D …). As to the kind of experiment: ECL (MSD multi-spot), antigen spotted on plate; Fab 10 nM; blank 427.
The target in assay [6] is T2, rHuman CD44/Fc Chimera, CF (R&D Systems …). The assay is described as above.
Assay [7] has as its target T3, Recombinant Human DLL4 (R&D Systems …). The description is as above.
The target of assay [8] is T4, rHuman P-Cadherin/Fc Chimera, CF (R&D …). The assay is described as above.
Assay [9] deals with T1, rHuman IGF-1 sR (IGF-1 sR), CF (R&D …). As to the kind of experiment: ECL (MSD multi-spot), antigen spotted on plate; Fab 8 nM; blank 1188.
For assay [10], the target named is T5, rHuman HGF R/c-MET/Fc Chimera, CF (R&D Systems Cat#358-MT/CF) (human, UniProt P08581 25-932).
T5 construct: Bought protein; also called HGF R/Fc; hepatocyte growth factor receptor; Fc part of the bought chimera not given
The assay is described as above.

In assay [11] the target is T3, Recombinant Human DLL4 (R&D Systems …). Described as above.
Assay [12] concerns the target T6, rHuman EGF R/Fc Chimera, CF (R&D Systems Cat#344-ER) (human, UniProt P00533 25-645).
T6 construct: Bought protein; also called epidermal growth factor receptor; Fc part of the bought chimera not given
The description is as above.

Assay [13] concerns the target T1, rHuman IGF-1 sR (IGF-1 sR), CF (R&D …). As to the kind of experiment: ECL (MSD multi-spot), antigen spotted on plate; Fab 0.32 nM; blank 428.
Assay [14] concerns the target T5, rHuman HGF R/c-MET/Fc Chimera, CF (R&D …). The assay is described as above.
The target of assay [15] is T3, Recombinant Human DLL4 (R&D Systems …). Described as above.
The target of assay [16] is T6, rHuman EGF R/Fc Chimera, CF (R&D …). The assay is described as above.
In assay [17] the target is T1, rHuman IGF-1 sR (IGF-1 sR), CF (R&D …). Nature of the assay: ECL (MSD multi-spot), antigen spotted on plate; Fab 1.6 nM; blank 648.
Assay [18] deals with T5, rHuman HGF R/c-MET/Fc Chimera, CF (R&D …). The description is as above.
The target of assay [19] is T3, Recombinant Human DLL4 (R&D Systems …). The description is as above.
The target in assay [20] is T6, rHuman EGF R/Fc Chimera, CF (R&D …). The description is as above.
The target in assay [21] is T1, rHuman IGF-1 sR (IGF-1 sR), CF (R&D …). Nature of the assay: ECL (MSD multi-spot), antigen spotted on plate; Fab 40 nM; blank 1229.
Assay [22] has as its target T5, rHuman HGF R/c-MET/Fc Chimera, CF (R&D …). Described as above.
Assay [23] concerns the target T3, Recombinant Human DLL4 (R&D Systems …). The description is as above.
Assay [24] deals with T6, rHuman EGF R/Fc Chimera, CF (R&D …). Described as above.
Assay [25] has as its target T1, rHuman IGF-1 sR (IGF-1 sR), CF (R&D …). As to the kind of experiment: ECL (MSD multi-spot), antigen spotted on plate; Fab 200 nM; blank 1659.
Assay [26] addresses T5, rHuman HGF R/c-MET/Fc Chimera, CF (R&D …). Described as above.
Assay [27] deals with T3, Recombinant Human DLL4 (R&D Systems …). The assay is described as above.
Assay [28] has as its target T6, rHuman EGF R/Fc Chimera, CF (R&D …). The assay is described as above.
Assay [29] deals with T1, rHuman IGF-1 sR (IGF-1 sR), CF (R&D …). As to the kind of experiment: ECL (MSD multi-spot), antigen spotted on plate; Fab 1000 nM; blank 2142.
In assay [30] the target is T5, rHuman HGF R/c-MET/Fc Chimera, CF (R&D …). The description is as above.
Assay [31] addresses T3, Recombinant Human DLL4 (R&D Systems …). The description is as above.
Assay [32] addresses T6, rHuman EGF R/Fc Chimera, CF (R&D …). The description is as above.
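Also: blank spot per well as comparator with Hit at signal to blank ratio of 4 or more.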

B1: Fab VH5-51_IGHD5-18*01>3_IGHJ4*01_G104T & V3-4_IGLJ1*01 (Fab, V domains shown)
VH: EVQLVQSGAEVKKPGESLKISCKGSGYSFTSYWIGWVRQMPGKGLEWMGIIYPGDSDTRYSPSFQGQVTISADKSISTAYLQWSSLKASDTAMYYCARRGYSYTYDYFDYWGQGTLVTVSS
VL: QTVVTQEPSFSVSPGGTVTLTCGLSSGSVSTSYYPSWYQQTPGQAPRTLIYSTNTRSSGVPDRFSGSILGNKAALTITGAQADDESDYYCVLYMGSGISYVFGTGTKVTVL
notes: Expressed in E. coli as a Fab; CH1 with Flag and His tags comes from Plasmid A and the lambda CL from Plasmid E; also called IGHV5-51*03; IGHJ4*01 G104T with IGLV8-61*01
Take B1: the ECL signal in assay [1] worked out at 3990; in assay [2], 3380; in assay [3], 29800; in assay [4] it was 3430; in assay [5], 1120; in assay [6], 841. The ECL signal in [7] came out at 5230; in assay [8] it was 705.

B2: Fab VH1-46_IGHD6-6*01_IGHJ1*01_S104A & L6_IGKJ1*01 (Fab, V domains shown)
VH: QVQLVQSGAEVKKPGASVKVSCKASGYTFTSYYMHWVRQAPGQGLEWMGIINPSGGSTSYAQKFQGRVTMTRDTSTSTVYMELSSLRSEDTAVYYCAREEYSSASAEYFQHWGQGTLVTVSS
VL: not shown
notes: Expressed in E. coli as a Fab; CH1 with Flag and His tags comes from Plasmid A and the kappa CL from Plasmid C; also called IGHV1-46*01; IGHJ1*01 S104A with IGKV3-11*01
As to B2, the ECL signal is 1290 in assay [9]; 1300 in [10]; 9330 in [11]; 1300 in assay [12]; 611 in [13]; 574 in assay [14]. Also, the ECL signal is 646 in assay [15]; 660 in [16]; 815 in [17]; 830 in [18]; 2130 in assay [19]; 862 in [20]. For the same molecule, the ECL signal in assay [21] was 1900; in [22], 1540; in assay [23] it was 13600; in [24], 1840; in [25] it was 2600; in assay [26] it was 2440. Moreover, the ECL signal in [27] is 14800; in assay [28] it was 2950; in [29] it was 3350; in assay [30], 3530; in [31] it was 14300; in [32], 3480.
